# Measurements published in patent US20140348785A1.
# Numbering of substitutions follows the chain as printed. In names and notes the source's numbering stands.
# B1: 10E8 Fab (antigen binding fragment of 10E8) (Fab, V domains shown)
# VH: EVQLVESGGGLVKPGGSLRLSCSASGFDFDNAWMTWVRQPPGKGLEWVGRITGPGEGWSVDYAAPVEGRFTISRLNSINFLYLEMNNLRMEDSGLYFCARTGKYYDFWSGYPPGEEYFQDWGRGTLVTVSS
# VL: SYELTQETGVSVALGRTVTITCRGDSLRSHYASWYQKKPGQAPILLFYGKNNRPSGVPDRFSGSASGNRASLTISGAQAEDDAEYYCSSRDKSGSRLSVFGGGTKLTVL
# B2: 10E8 IgG alanine variant E53A (heavy chain, Kabat) (antibody, V domains shown)
# VH: B1 VH with E56A
# VL: B1 VL
# What was measured:
# [1] = target: biotinylated gp41 MPER peptide RRR-(656-683)-RRK-biotin (HIV-1); test: SPR: biotinylated MPER peptide on an SA chip, Fab as analyte, 1:1 Langmuir fit
# [2] = target: soluble gp41 MPER peptide RRR-(656-683)-RRR (HIV-1); test: SPR: variant IgG captured on an anti-human IgG chip, MPER peptide as analyte
Binder,Kd [1] [nM],fold decrease in affinity relative to wild type 10E8 [2] [fold]
B1,17,
B2,,60
